Columns and labels:
[1] = biological target: the molecule itself; experiment: SEC; analytical SEC, 10 µM enzyme loaded on Superdex 200 Increase 10/300, 50 mM HEPES pH 8.0, 150 mM NaCl, 20 µM PLP, samples incubated at 25 °C for 20 min; oligomeric state from the elution volume; the limits of K_Dtet-dim are of the step tetramer to dimers
[2] = biological target: the molecule itself; experiment: as above; remark: listed apart in the source

B1: human ornithine aminotransferase R154L pathogenic variant (enzyme)
chain: TSVATKKTVQGPPTSDDIFEREYKYGAHNYHPLPVALERGKGIYLWDVEGRKYFDFLSSYSAVNQGHCHPKIVNALKSQVDKLTLTSRAFYNNVLGEYEEYITKLFNYHKVLPMNTGVEAGETACKLALKWGYTVKGIQKYKAKIVFAAGNFWGRTLSAISSSTDPTSYDGFGPFMPGFDIIPYNDLPALERALQDPNVAAFMVEPIQGEAGVVVPDPGYLMGVRELCTRHQVLFIADEIQTGLARTGRWLAVDYENVRPDIVLLGKALSGGLYPVSAVLCDDDIMLTIKPGEHGSTYGGNPLGCRVAIAALEVLEEENLAENADKLGIILRNELMKLPSDVVTAVRGKGLLNAIVIKETKDWDAWKVCLRLRDNGLLAKPTHGDIIRFAPPLVIKEDELRESIEIINKTILSF
modifications: PLP on Lys292 (internal aldimine)
stoichiometry N [1]: 2 | Kd [2]: > 10 µM
